Measured values from article PMC5299624.

Assays:
Test in all cases: ITC
[1] = target: human NaV1.5 CTD (1773-1940) L1917K (human) (UniProt Q14524)
[2] = target: human NaV1.6 C-terminal domain (CTD), amino acids 1769-1926, wild type (human) (UniProt Q9UQD0)
[3] = target: human NaV1.5 CTD (1773-1940) Q1909R (human) (UniProt Q14524)
[4] = target: human NaV1.5 C-terminal domain (CTD), amino acids 1773-1940, wild type (human) (UniProt Q14524)
[5] = target: human NaV1.5 CTD (1773-1940) R1913H (human) (UniProt Q14524)
[6] = target: human NaV1.2 C-terminal domain (CTD), amino acids 1777-1937, wild type (human) (UniProt Q99250)
[7] = target: human NaV1.2 CTD (1777-1937) H1853R (human) (UniProt Q99250)
[8] = target: human NaV1.5 CTD (1773-1940) D1790G (human) (UniProt Q14524)
[9] = target: human NaV1.2 CTD (1777-1937) R1918H (human) (UniProt Q99250)
[10] = target: human NaV1.5 CTD (1773-1940) Y1795C (human) (UniProt Q14524)
[11] = target: human NaV1.5 CTD (1773-1940) Y1795H (human) (UniProt Q14524)

Work on “calmodulin (CaM) (from UniProt P0DP23 1-149) (natural protein)” yielded a dH [1] of -9.8 kcal/mol, a stoichiometry N [1] of 0.98 and a dH [2] of -17.5 kcal/mol. For the same substance, the dH [3] was -14.9 kcal/mol, the dH [4] was -10.5 kcal/mol and the stoichiometry N [5] was 0.73. The dH [6] was -4.54 kcal/mol, the stoichiometry N [6] was 1.02 and the dH [7] was -8.3 kcal/mol. The dH [8] was -10.5 kcal/mol, the stoichiometry N [8] was 0.25 and the dH [9] was -7.5 kcal/mol. The dH [10] was -7.43 kcal/mol, the stoichiometry N [10] was 0.92 and the dH [11] was -10.2 kcal/mol. The stoichiometry N [11] was 0.76.
